PMC4077741, “Miz-1 Activates Gene Expression via a Novel Consensus DNA Binding Motif”

Columns and labels:
Cux1 = Cux1 (UniProt P39880); assay: EMSA; conditions: EMSA: ZBA (10 mM Tris pH 7.5, 90 mM KCl, 1 mM MgCl2, 90 uM ZnCl2, 5 mM DTT) with 100 ng/ul poly(dI-dC), 15 min, room temperature, 5% acrylamide gel in 0.5X …
[1] = biological target: T1, MBP-Miz-1-ZF (Homo sapiens) (UniProt Q13105); assay: competition; conditions: EMSA: ZBA (10 mM Tris pH 7.5, 90 mM KCl, 1 mM MgCl2, 90 uM ZnCl2, 5 mM DTT) with 100 ng/ul poly(dI-dC), 15 min, room temperature, 5% acrylamide gel in 0.5X …
T1 sequence (Q13105 269-793, looked up): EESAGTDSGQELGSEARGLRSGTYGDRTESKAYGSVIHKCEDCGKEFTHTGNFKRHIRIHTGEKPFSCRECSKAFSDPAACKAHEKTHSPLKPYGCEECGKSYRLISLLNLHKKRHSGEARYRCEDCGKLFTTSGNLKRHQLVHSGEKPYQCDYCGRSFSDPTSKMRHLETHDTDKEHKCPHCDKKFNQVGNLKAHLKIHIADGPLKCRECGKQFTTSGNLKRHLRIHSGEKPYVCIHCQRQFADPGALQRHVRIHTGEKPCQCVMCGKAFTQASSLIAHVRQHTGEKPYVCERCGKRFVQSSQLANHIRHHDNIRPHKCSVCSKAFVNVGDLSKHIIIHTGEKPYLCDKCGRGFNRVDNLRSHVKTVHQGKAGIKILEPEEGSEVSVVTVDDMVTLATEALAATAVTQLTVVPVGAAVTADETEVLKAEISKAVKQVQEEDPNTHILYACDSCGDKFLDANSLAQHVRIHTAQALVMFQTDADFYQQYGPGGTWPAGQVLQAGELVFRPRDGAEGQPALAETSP

Miz-1 untagged = biological target: T2, Miz-1 untagged (Homo sapiens, UniProt Q13105 1-803); assay: EMSA; EMSA: ZBA (10 mM Tris pH 7.5, 90 mM KCl, 1 mM MgCl2, 90 uM ZnCl2, 5 mM DTT) with 100 ng/ul poly(dI-dC), 15 min, room temperature; 5% acrylamide gel in 0.5X Tris-borate at 4 C; conditions: protein: ivt; tags: none; label: 5' IRDye 700; blunt
T2 sequence: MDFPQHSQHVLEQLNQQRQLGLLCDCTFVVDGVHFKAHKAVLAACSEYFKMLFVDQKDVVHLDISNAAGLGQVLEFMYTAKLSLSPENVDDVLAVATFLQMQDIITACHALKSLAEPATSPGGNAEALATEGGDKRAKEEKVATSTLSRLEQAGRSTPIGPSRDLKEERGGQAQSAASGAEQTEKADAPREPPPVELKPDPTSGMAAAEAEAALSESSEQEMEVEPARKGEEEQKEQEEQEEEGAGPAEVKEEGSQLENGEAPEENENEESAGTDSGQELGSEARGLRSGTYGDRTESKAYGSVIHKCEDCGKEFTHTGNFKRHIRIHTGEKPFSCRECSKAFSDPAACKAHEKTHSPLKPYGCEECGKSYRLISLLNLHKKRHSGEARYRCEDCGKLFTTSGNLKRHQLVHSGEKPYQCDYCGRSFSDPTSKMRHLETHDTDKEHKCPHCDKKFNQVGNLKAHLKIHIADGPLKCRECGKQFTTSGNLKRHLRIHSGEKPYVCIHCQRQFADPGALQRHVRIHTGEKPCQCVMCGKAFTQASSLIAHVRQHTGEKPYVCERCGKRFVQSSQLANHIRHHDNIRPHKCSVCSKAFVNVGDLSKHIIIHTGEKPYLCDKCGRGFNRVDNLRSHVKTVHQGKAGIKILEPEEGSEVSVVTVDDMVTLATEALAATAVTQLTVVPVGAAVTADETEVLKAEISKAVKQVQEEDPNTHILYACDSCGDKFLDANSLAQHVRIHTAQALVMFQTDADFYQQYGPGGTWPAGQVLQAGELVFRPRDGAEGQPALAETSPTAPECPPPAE

MBP-Miz-1-FL [2] = biological target: T3, MBP-Miz-1-FL (Homo sapiens, UniProt Q13105 1-803); assay: as above; conditions: protein: recombinant; tags: N-terminal MBP; label: 5' IRDye 700; blunt
T3 sequence: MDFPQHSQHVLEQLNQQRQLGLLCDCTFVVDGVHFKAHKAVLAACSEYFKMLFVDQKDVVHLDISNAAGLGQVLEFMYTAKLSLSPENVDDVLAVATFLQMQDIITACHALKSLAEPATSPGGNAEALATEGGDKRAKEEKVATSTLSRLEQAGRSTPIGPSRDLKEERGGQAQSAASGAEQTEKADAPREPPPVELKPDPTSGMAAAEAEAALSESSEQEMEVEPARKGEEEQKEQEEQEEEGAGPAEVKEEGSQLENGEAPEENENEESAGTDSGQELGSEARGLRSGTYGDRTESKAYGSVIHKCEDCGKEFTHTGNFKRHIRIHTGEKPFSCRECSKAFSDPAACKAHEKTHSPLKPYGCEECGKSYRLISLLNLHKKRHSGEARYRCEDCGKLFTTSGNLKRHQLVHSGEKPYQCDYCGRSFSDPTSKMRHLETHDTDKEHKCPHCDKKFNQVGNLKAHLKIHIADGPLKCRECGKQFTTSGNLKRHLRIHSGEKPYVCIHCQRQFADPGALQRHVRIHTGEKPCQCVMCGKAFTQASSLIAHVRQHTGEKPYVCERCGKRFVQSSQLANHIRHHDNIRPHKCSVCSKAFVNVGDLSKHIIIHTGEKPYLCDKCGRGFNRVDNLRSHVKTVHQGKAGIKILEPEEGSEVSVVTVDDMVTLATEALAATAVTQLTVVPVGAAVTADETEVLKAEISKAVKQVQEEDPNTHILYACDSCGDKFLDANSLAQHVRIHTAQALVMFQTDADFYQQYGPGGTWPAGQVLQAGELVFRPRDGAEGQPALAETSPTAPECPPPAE

[3] = biological target: T4, Miz-1 (Figure 7 preparation) (UniProt Q13105 1-803); assay: as above; conditions: protein: ivt; label: 5' IRDye 700; blunt
T4 sequence: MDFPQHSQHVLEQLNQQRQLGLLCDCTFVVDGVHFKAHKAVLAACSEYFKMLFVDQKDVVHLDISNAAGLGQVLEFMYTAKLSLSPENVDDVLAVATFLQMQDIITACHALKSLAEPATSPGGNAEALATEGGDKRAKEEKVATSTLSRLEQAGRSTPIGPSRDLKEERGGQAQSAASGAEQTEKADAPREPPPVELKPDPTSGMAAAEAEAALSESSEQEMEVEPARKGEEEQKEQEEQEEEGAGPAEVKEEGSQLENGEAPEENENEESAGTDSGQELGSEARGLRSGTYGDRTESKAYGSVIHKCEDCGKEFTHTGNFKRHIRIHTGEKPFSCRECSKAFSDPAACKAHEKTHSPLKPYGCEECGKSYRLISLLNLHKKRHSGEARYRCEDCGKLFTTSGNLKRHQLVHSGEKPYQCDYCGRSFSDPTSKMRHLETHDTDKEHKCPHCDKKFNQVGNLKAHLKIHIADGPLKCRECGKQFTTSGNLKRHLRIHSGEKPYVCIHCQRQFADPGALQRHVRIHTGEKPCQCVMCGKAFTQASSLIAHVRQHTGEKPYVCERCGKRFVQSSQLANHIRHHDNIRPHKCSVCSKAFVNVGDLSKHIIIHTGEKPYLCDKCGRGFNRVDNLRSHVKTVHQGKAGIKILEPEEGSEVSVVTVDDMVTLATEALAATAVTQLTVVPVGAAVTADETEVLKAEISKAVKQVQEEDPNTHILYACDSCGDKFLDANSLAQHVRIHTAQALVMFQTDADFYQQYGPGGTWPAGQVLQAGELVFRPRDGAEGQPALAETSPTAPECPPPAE

MBP-Miz-1-FL [4] = biological target: T3, MBP-Miz-1-FL; assay: competition; 200-fold unlabeled P1 vs labeled P1; EMSA: ZBA (10 mM Tris pH 7.5, 90 mM KCl, 1 mM MgCl2, 90 uM ZnCl2, 5 mM DTT) with 100 ng/ul poly(dI-dC), 15 min, room temperature; 5% acrylamide gel in 0.5X Tris-borate at 4 C; conditions: protein: recombinant; tags: N-terminal MBP; label: 5' IRDye 700 (labeled version); blunt
MBP-Miz-1-FL [5] = biological target: T3, MBP-Miz-1-FL; assay: competition; 200-fold unlabeled P1 vs labeled P2; EMSA: ZBA (10 mM Tris pH 7.5, 90 mM KCl, 1 mM MgCl2, 90 uM ZnCl2, 5 mM DTT) with 100 ng/ul poly(dI-dC), 15 min, room temperature; 5% acrylamide gel in 0.5X Tris-borate at 4 C; conditions: protein: recombinant; tags: N-terminal MBP; label: 5' IRDye 700 (labeled version); blunt
[6] = biological target: T4, Miz-1 (Figure 7 preparation); assay: EMSA; EMSA: ZBA (10 mM Tris pH 7.5, 90 mM KCl, 1 mM MgCl2, 90 uM ZnCl2, 5 mM DTT) with 100 ng/ul poly(dI-dC), 15 min, room temperature; 5% acrylamide gel in 0.5X Tris-borate at 4 C; conditions: protein: ivt; label: 5' IRDye 700 (labeled version); blunt
MBP-Miz-1-FL [7] = biological target: T3, MBP-Miz-1-FL; assay: competition; 200-fold unlabeled P2 vs labeled P1; EMSA: ZBA (10 mM Tris pH 7.5, 90 mM KCl, 1 mM MgCl2, 90 uM ZnCl2, 5 mM DTT) with 100 ng/ul poly(dI-dC), 15 min, room temperature; 5% acrylamide gel in 0.5X Tris-borate at 4 C; conditions: protein: recombinant; tags: N-terminal MBP; label: 5' IRDye 700 (labeled version); blunt
MBP-Miz-1-FL [8] = biological target: T3, MBP-Miz-1-FL; assay: competition; 200-fold unlabeled P2 vs labeled P2; EMSA: ZBA (10 mM Tris pH 7.5, 90 mM KCl, 1 mM MgCl2, 90 uM ZnCl2, 5 mM DTT) with 100 ng/ul poly(dI-dC), 15 min, room temperature; 5% acrylamide gel in 0.5X Tris-borate at 4 C; conditions: protein: recombinant; tags: N-terminal MBP; label: 5' IRDye 700 (labeled version); blunt
MBP-Miz-1-FL [9] = biological target: T3, MBP-Miz-1-FL; assay: competition; unlabeled P1m3 vs labeled P1 or P2; range over both proteins and probes; EMSA: ZBA (10 mM Tris pH 7.5, 90 mM KCl, 1 mM MgCl2, 90 uM ZnCl2, 5 mM DTT) with 100 ng/ul poly(dI-dC), 15 min, room temperature; 5% acrylamide gel in 0.5X Tris-borate at 4 C; conditions: protein: recombinant; tags: N-terminal MBP; blunt

Sequence of Cux1 (P39880 whole entry): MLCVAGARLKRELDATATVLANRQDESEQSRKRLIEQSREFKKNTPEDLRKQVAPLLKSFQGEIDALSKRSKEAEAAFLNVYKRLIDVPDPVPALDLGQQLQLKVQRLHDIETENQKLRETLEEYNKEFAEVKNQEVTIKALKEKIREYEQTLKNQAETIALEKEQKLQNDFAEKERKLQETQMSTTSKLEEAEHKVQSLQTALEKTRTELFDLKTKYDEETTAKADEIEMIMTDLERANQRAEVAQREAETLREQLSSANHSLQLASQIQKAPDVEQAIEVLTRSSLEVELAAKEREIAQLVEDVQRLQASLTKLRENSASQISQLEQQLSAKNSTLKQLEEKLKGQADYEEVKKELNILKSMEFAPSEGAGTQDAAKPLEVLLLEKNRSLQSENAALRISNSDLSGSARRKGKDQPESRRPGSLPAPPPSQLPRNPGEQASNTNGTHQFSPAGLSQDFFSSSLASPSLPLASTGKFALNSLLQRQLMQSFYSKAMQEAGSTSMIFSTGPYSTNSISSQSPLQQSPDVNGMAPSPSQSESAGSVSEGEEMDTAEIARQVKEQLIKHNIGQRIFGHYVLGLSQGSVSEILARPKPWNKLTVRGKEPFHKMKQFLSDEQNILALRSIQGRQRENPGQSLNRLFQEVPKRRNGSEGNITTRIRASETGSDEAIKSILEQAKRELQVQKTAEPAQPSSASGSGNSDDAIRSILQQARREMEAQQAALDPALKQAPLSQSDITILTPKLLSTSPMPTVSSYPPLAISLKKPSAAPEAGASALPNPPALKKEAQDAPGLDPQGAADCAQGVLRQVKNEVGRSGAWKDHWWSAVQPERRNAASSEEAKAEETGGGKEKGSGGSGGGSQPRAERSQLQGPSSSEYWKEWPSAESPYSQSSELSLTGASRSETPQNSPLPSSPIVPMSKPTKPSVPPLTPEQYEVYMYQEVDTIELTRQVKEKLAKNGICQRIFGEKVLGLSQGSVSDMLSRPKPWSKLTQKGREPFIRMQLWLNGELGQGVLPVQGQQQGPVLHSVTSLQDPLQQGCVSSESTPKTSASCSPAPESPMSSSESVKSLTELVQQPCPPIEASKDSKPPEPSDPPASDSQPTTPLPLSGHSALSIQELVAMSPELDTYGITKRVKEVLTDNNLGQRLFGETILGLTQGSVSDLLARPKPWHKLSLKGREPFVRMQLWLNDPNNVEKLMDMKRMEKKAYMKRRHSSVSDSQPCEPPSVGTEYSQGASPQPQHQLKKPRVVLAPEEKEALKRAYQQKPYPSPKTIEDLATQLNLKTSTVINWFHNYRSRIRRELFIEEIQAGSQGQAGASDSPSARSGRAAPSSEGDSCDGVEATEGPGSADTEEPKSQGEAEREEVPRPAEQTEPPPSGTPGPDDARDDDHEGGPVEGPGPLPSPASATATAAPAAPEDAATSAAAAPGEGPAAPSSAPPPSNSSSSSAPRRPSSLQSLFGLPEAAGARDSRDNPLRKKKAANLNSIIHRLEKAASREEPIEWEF

Question: With “GAATTATCGGTAATCCATCGAGGT (double strand) [P1]” as the molecule, how does the binding signal (Cux1; scale: bound intensity relative to P2) read?
Answer: The binding signal was 0.5.

Question: What about the binding signal (% reduction of bound labeled P1) ([1]; 200-fold unlabeled P1 vs labeled P1) of the same molecule?
Answer: Its binding signal (% reduction of bound labeled P1) is 87.

Question: Which binding signal (% reduction of bound labeled P1) ([1]; unlabeled P1m1 vs labeled P1, competition nearly eliminated) does the source give for “GAATTAGGAGTAAACCATCGAGGT (double strand) [P1m1]” here?
Answer: The binding signal (% reduction of bound labeled P1) was 7.

Question: With “AGGGTTGGTATCGATTATCGAGTT (double strand) [P2]” as the molecule, how does the binding signal (fold bound intensity P2 over P1) (Cux1) read?
Answer: The binding signal (fold bound intensity P2 over P1) was 2.

Question: Which binding signal (% reduction of bound labeled P1) ([1]; unlabeled P1m2 vs labeled P1, competition nearly eliminated) does the source give for “GAATTATCCGTAATGCATCGAGGT (double strand) [P1m2]” here?
Answer: Its binding signal (% reduction of bound labeled P1) is 24.

B1: CP (dsDNA)
DNA 1: CAAAAGTGCGGCTGCGTGGTGCAC
DNA 2: GTGCACCACGCAGCCGCACTTTTG
Question: What does the source list for B1?
Answer: binding result (Miz-1 untagged): no binding; binding result (MBP-Miz-1-FL [2]): no binding; binding result [3]: no binding

B2: P1 (dsDNA)
DNA 1: GAATTATCGGTAATCCATCGAGGT
DNA 2: ACCTCGATGGATTACCGATAATTC
Question: What does the source list for B2?
Answer: binding signal (MBP-Miz-1-FL [4]): 5.3 fold reduction of bound labeled P1; binding signal (MBP-Miz-1-FL [5]): 4.8 fold reduction of bound labeled P2; binding signal [6]: ~2.5 fold bound intensity P1 over P2

B3: P2 (dsDNA)
DNA 1: AGGGTTGGTATCGATTATCGAGTT
DNA 2: AACTCGATAATCGATACCAACCCT
Question: With B3 as the molecule, how does the binding signal (MBP-Miz-1-FL [7]) read?
Answer: Its binding signal is 2 fold reduction of bound labeled P1.

Question: And the binding signal (MBP-Miz-1-FL [8])?
Answer: Its binding signal is 6.4 fold reduction of bound labeled P2.

B4: P1m3 (dsDNA)
DNA 1: ACCCTTATATCGGTAATCGGTAAG
DNA 2: CTTACCGATTACCGATATAAGGGT
Question: Does B4 bind (MBP-Miz-1-FL [9])?
Answer: Result: binds
